First the molecules themselves.
T1: recombinant human IL-12 (rhIL-12) (human, UniProt P29459 23-219; P29460 23-328)
T1 construct: disulfide-linked p35/p40 heterodimer (p70); also called IL-12 p70; rec. human IL12
T1 sequence (looked up) 1: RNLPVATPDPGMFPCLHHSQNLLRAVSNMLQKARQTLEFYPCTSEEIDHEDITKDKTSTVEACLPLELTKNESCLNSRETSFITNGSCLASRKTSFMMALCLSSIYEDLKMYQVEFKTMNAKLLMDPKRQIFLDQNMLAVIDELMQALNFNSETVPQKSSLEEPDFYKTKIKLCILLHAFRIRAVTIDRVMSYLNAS
T1 sequence (looked up) 2: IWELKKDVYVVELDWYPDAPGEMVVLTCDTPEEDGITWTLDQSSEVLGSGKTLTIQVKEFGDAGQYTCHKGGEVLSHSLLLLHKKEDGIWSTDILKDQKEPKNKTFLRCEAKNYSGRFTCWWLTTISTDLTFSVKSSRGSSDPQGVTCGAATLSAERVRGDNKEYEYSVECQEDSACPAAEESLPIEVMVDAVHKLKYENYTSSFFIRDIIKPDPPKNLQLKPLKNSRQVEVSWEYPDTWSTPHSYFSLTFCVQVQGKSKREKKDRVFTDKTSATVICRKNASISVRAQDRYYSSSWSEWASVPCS

T2: human IL-12 (human, UniProt P29459 23-219; P29460 23-328)
T2 construct: recombinant human IL-12 heterodimer (p35/p40, disulfide-linked); also called hIL-12; rhIL-12
T2 sequence (looked up) 1: T1 sequence (looked up) 1
T2 sequence (looked up) 2: T1 sequence (looked up) 2

T3: human interleukin 12 (p70 heterodimer of p35 and p40) (human, UniProt P29459 23-219; P29460 23-328)
T3 construct: Recombinant human IL-12; p35 and p40 linked by a disulfide bridge; also called hIL-12; IL-12
T3 sequence (looked up) 1: T1 sequence (looked up) 1
T3 sequence (looked up) 2: T1 sequence (looked up) 2

B1: Y61 IgG germline (antibody, V domains shown)
VH: QVQLVESGGGVVQPGRSLRLSCAASGFTFSSYGMHWVRQAPGKGLEWVAFIRYDGSNKYYADSVKGRFTISRDNSKNTLYLQMNSLRAEDTAVYYCKTHGSHDNWGQGTMVTVSS
VL: QSVLTQPPSVSGAPGQRVTISCSGSRSNIGSNTVKWYQQLPGTAPKLLIYGNDQRPSGVPDRFSGSKSGTSASLAITGLQAEDEADYYCQSYDRGTHPALLFGTGTKVTVL
B2: AO3 IgG germline (antibody, V domains shown)
VH: B1 VH
VL: B1 VL with A99L, L100T, L101M
notes: IgG with germline frameworks as named; only the CDR3s are tied to it
B3: Y61-L94Y (scFv, V domains shown)
VH: B1 VH with E6Q, N84K
VL: B1 VL with G95Y
B4: 103-8 (scFv, V domains shown)
VH: B1 VH with E6Q, N84K
VL: SYVLTQPPSVSGTPGQRVTISCSGGRSNIGSNTVKWYQQLPGTAPKLLIYGNDQRPSGVPDRFSGSKSGTSASLAITGVQAEDEADYYCQTYDKGFTGSSVFGTGTKVTVL
notes: scFv
B5: 149-6 (scFv, V domains shown)
VH: B1 VH with E6Q, N84K, K97T
VL: SYVLTQPPSVSGTPGQRVTISCSGGRSNIVSNTVKWYQQLPGTAPKLLIYGNDQRPSGVPDRFSGSKSGTSASLAITGVQAEDEADYYCQSYDRGFTGSRVFGTGTKVTVLG
notes: scFv
B6: 149-11 (scFv, V domains shown)
VH: B1 VH with E6Q, N84K, K97T, G106S
VL: B4 VL with T91S, K94N, S99A, S100R
notes: scFv
B7: 149-7 (scFv, V domains shown)
VH: B1 VH with E6Q, N84K, K97T
VL: B4 VL with T91S, K94R, G95D, S100R
notes: scFv
B8: 149-5 (scFv, V domains shown)
VH: B1 VH with E6Q, N84K, K97T, N104T
VL: B5 VL with V30G, R94S, G95S, F96L, T97W, S99T
notes: scFv
B9: 136-15 (scFv, V domains shown)
VH: B1 VH with E6Q, N84K
VL: B5 VL with G25S, V30G, S91T, R94K, R100S
notes: scFv
B10: 103-14 & 9 (scFv, V domains shown)
VH: B1 VH with E6Q, N84K
VL: B4 VL with T91S, K94R, S100M
notes: scFv
B11: 149-4 (scFv, V domains shown)
VH: B1 VH with E6Q, N84K, K97T, G106S
VL: B4 VL with T91S, K94R, S100R
notes: scFv
B12: Y17 (scFv, V domains shown)
VH: B1 VH with E6Q, N84K
VL: B4 VL with T91S, K94R, F96S, T97A, G98P, S99M, S100I, V101N
notes: scFv
B13: Y61-L94N (scFv, V domains shown)
VH: B1 VH with E6Q, N84K
VL: B1 VL with Q1S, S2Y, A13T, S25G, L79V, G95N
B14: Y61-L94F (scFv, V domains shown)
VH: B1 VH with E6Q, N84K
VL: B1 VL with Q1S, S2Y, A13T, S25G, L79V, G95F
B15: 136-15 (scFv)
chain: QVQLVQSGGGVVQPGRSLRLSCAASGFTFSSYGMHWVRQAPGKGLEWVAFIRYDGSNKYYADSVKGRFTISRDNSKNTLYLQMKSLRAEDTAVYYCKTHGSHDNWGQGTMVTVSSSYVLTQPPSVSGTPGQRVTISCSGSRSNIGSNTVKWYQQLPGTAPKLLIYGNDQRPSGVPDRFSGSKSGTSASLAITGVQAEDEADYYCQTYDKGFTGSSVFGTGTKVTVLG
B16: 149-5 (scFv)
chain: B15 chain with K97T, N104T, S140G, T206S, K209S, G210S, F211L, T212W, S214T, S215R
B17: 149-6 (scFv)
chain: B15 chain with K97T, S140G, G145V, T206S, K209R, S215R
B18: Y61-L30K (scFv, V domains shown)
VH: B1 VH with E6Q, N84K
VL: B1 VL with Q1S, S2Y, A13T, S25G, S31K, L79V
notes: copies: 1 + 1
B19: Y61-L30C (scFv, V domains shown)
VH: B1 VH with E6Q, N84K
VL: B1 VL with Q1S, S2Y, A13T, S25G, S31C, L79V
notes: copies: 1 + 1
B20: Y61-L30Y (scFv, V domains shown)
VH: B1 VH with E6Q, N84K
VL: B1 VL with Q1S, S2Y, A13T, S25G, S31Y, L79V
notes: copies: 1 + 1
B21: Y61-L30D (scFv, V domains shown)
VH: B1 VH with E6Q, N84K
VL: B1 VL with Q1S, S2Y, A13T, S25G, S31D, L79V
notes: copies: 1 + 1
B22: Y61-L30N (scFv, V domains shown)
VH: B1 VH with E6Q, N84K
VL: B1 VL with Q1S, S2Y, A13T, S25G, S31N, L79V
notes: copies: 1 + 1
B23: Y61-L30R (scFv, V domains shown)
VH: B1 VH with E6Q, N84K
VL: B1 VL with Q1S, S2Y, A13T, S25G, S31R, L79V
notes: copies: 1 + 1

Where a chain is given by its changes, count along the chain named. Names and notes keep the numbering of the source.

The target in the first experiment is T1, recombinant human IL-12 (rhIL-12). Briefly: BIAcore SPR. (In general: Surface plasmon resonance follows binding to a sensor surface in real time, without labels.)
On to B1, for which the koff (commonly a measure of how fast the partners let go of each other) amounted to 0.00015 s⁻¹.
Consider B2, for which the koff is 0.00025 s⁻¹.

For the next experiment the target is unchanged. Briefly: receptor binding assay, 125I-hIL-12 on PHA blasts. The method, then:
(§1) PHA blast cells isolated as described above, were washed once and resuspended in binding buffer to a cell density of 2×10⁷ cells/ml. […] The cell pellet was examined for cell bound radioactivity using a gamma counter. […] Incubations were carried out in duplicate.
As for B1, the IC50 (commonly the point on the concentration scale where inhibition reaches its midpoint) was 0.016 nM.
Same read-out and setting: as for B2, the figure is 0.035 nM; as for B3, 0.02 nM.

The target in a further experiment is T2, human IL-12. Briefly: RB assay: 125I-hIL-12 binding to PHA blasts. As to the method: as §1
As to B4, the IC50 came to 0.06 nM.
In turn, B5 registered a half-maximal inhibitory concentration (IC50) of 0.6 nM.
Molecule B6 showed an IC50 of 0.2 nM.
Same read-out and setting: for B7 the value was 0.9 nM.
B8 displayed an IC50 of 0.12 nM.
For the molecule B9, the half-inhibitory concentration (IC50) is 0.1 nM.
Same read-out and setting: as for B10, the figure is 0.04 nM; as for B11, 0.08 nM.
Still for that read-out and setting: for B12 the value was 0.45 nM.

For another experiment, the target named is T2, human IL-12. Kind of experiment: SPR (BIAcore), IL-12 chip. An excerpt: The system utilizes the optical properties of SPR to detect alterations in protein concentrations within a dextran biosensor matrix. Proteins are covalently bound to the dextran matrix at known concentrations. […] To determine the off rate (koff), on rate (kₒₙ), association rate (Ka) and dissociation rate (Kd) constants, BIAcore kinetic evaluation software (version 2.1) was used.
For the molecule B4, the koff came out at 0.00033 s⁻¹.
As for B5, the dissociation rate constant (koff) was determined as 0.00273 s⁻¹.
Same read-out and setting: for B6 the value was 0.0143 s⁻¹.
B7 displayed a koff of 0.00113 s⁻¹.
Regarding B8, the koff stood at 0.00102 s⁻¹.
B9 came in with an off-rate constant (koff) of 0.00074 s⁻¹.
On the same count and under the same terms, as for B10, the figure is 0.00067 s⁻¹; as for B11, 0.00137 s⁻¹; as for B12, 8.9e-05 s⁻¹.

A further experiment deals with T2, human IL-12. Kind of experiment: cell-based or functional assay.
Consider B4, for which the “PHA assay IC50” value stood at 1.5 nM.
Turning to B5, the “PHA assay IC50” value worked out at 2 nM.
Still for that read-out and setting: as for B6, the figure is 4 nM.
Still for that read-out and setting: for B7 the value was 3 nM; for B8, 3 nM; for B9, 2 nM.
On to B10, for which the “PHA assay IC50” value was determined as 1.2 nM.
The same measure, in the same setting: as for B11, the figure is 3 nM; as for B12, more than 10 nM.

In another experiment the target is T1, recombinant human IL-12 (rhIL-12). Kind of experiment: cell-based or functional assay.
As for B1, the “IFN gamma IC50” value is 0.16 nM and the “PHA assay IC50” value amounted to 0.13 nM.
As for B13, the “PHA assay IC50” value is 0.08 nM.
On the same count and under the same terms, for B14 the value was 0.06 nM; for B2, 0.175 nM; for B3, 0.02 nM.

Another experiment deals with T3, human interleukin 12 (p70 heterodimer …). Kind of experiment: BIAcore.
In turn, B13 yielded a koff of 0.000137 s⁻¹.
Same read-out and setting: as for B14, the figure is 0.000236 s⁻¹.
In the case of B3, the koff stood at 0.000131 s⁻¹.

Another experiment addresses T1, recombinant human IL-12 (rhIL-12). Briefly: cell-based or functional assay. This is another data set of the same source.
For B15, the “PHA assay IC50 (M) p70:p40 1:0” value worked out at 2e-09 M, the “PHA assay IC50 (M) p70:p40 1:20” value is 5e-09 M and the “PHA assay IC50 (M) p70:p40 1:50” value was 4e-09 M.
On the same counts, the results for B16 are 6.5e-09 M, 7e-09 M and 4e-09 M.
In the case of B17, the “PHA assay IC50 (M) p70:p40 1:0” value was determined as 9e-10 M, the “PHA assay IC50 (M) p70:p40 1:20” value worked out at 1e-09 M and the “PHA assay IC50 (M) p70:p40 1:50” value was determined as 1e-09 M.

A further experiment addresses T3, human interleukin 12 (p70 heterodimer …). Briefly: BIAcore. This is another data set of the same source.
In the case of B18, the koff is 0.000346 s⁻¹.
On the same count and under the same terms, for B19 the value was 0.000186 s⁻¹.
Still for that read-out and setting: for B20 the value was 0.000483 s⁻¹; for B21, 0.00022 s⁻¹; for B22, 0.000166 s⁻¹.
The same measure, in the same setting: as for B23, the figure is 0.000182 s⁻¹.

These data come from patent US20150037348A1 (AbbVie / Abbott, published 2015).
